The experiment in a line: Leukapheresis with and without mobilization and manufacturing of CAR-T/TCR-T cells from cancer patients. The conditions noted are these: mobilization prior to leukapheresis. The experiment is classed as in vivo, human. The protocol: A study is conducted to compare the generation of cell therapy products from cancer patients who have received 2 or more cycles of prior chemotherapy. Patients with different types of different cancers (e.g., diffuse large B cell lymphoma, acute B-ALL, CLL, multiple myeloma, breast cancer, ovarian cancer, lung cancer etc.) are eligible. Leukapheresis products are collected from the subjects with and without mobilization with Perixafor (0.24 mg/kg subcutaneously daily on days 1-3). T cells are isolated and used for manufacturing of CAR-T and TCR-T cells using lentiviral mediated gene transduction as described in the preceding sections.

B1: G-CSF: cytokine, G-CSF (filgrastim, Amgen) (protein, chains of the INN, looked up)
chain: MTPLGPASSLPQSFLLKCLEQVRKIQGDGAALQEKLCATYKLCHPEELVLLGHSLGIPWAPLSSCPSQALQLAGCLSQLHSGLFLYQGLLQALEGISPELGPTLDTLQLDVADFATTIWQQMEELGMAPALQPTQGAMPAFASAFQRRAGGVLVASHLQSFLEVSYRVLRHLAQP
As for B1, the “yield of leukapheresis product for generation of CAR-T cells” value is reported as “improve the yield”.

(Values after patent US20210290676A1, “IMPROVING THE EFFICACY AND SAFETY OF ADOPTIVE CELLULAR THERAPIES” (University of Southern California, priority 2018, published 2021).)
